Results as given in US9084734B2, “Peptide personal care compositions and methods for their use” (Danisco US Inc., priority 2005, dated 2015).
Bridge positions count the residues as written; N and C are the ends. Peptide text beside a SMILES is read from it.

Legend:
Human VEGF165 = target: T1, Human VEGF165 (Homo sapiens, UniProt P15692); test: BIAcore binding analysis of VEGF-binding peptides (surface plasmon resonance); conditions: 1:1 Langmuir binding; 1000 RU VEGF, 850 RU TNFα
T1 construct: purchased Biosource
T1 sequence (P15692 27-191 isoform P15692-4): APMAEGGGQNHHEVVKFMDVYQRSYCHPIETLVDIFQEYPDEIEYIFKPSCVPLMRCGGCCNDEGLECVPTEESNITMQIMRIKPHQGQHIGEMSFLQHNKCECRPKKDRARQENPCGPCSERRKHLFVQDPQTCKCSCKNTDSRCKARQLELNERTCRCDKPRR
Procedure: FIG. 3 provides results of a BIACORE binding analysis of VEGF binding peptides. Binding curves were obtained as described in the Examples. Data were fit to a two state reaction model with conformation change: Analyte (A) binds to ligand (B) to form complex AB.
In this Example, experiments conducted to assess the affinities of the peptides for VEGF are described. Affinities of the peptides for VEGF were measured using a BIAcore™-3000 surface plasmon resonance system (Biacore). A CM5 sensor chip was conditioned with 50 mM NaOH, 0.1% HCl, 0.1% SDS, and 0.08% H3PO4, and activated for covalent coupling of VEGF using N-ethyl-N′-(3-dimethylaminopropyl)-carbodiimide hydrochloride (EDC) and N-hydroxysuccinimide (NHS) according to the supplier's instructions (Biacore). Human VEGF165 (Biosource) was diluted to 5 μg/ml in 20 mM sodium acetate, pH 4.8 and injected at a flow rate of 2 μl/min to achieve approximately 1000 to 6000 response units (RU) of coupled protein. TNF-alpha (human TNF-alpha, Biosource, Int., Camarillo, Calif.) was similarly coupled to the CM5 sensor chip to approximately 850 to 3500 RU in the reference lane. A solution of 1 M ethanolamine was injected as a blocking agent. In some experiments, an additional solution of EDC and NHS were injected to improve baseline stability and a solution of 1 M ethanolamine injected as a blocking agent. The reference lane was activated with EDC and NHS and blocked with ethanolamine.
Peptides were synthesized using standard FMOC chemistry, purified by reverse phase HPLC to >95% purity (SynPep), and stored at 10 mg/mL in DMSO. For kinetic measurements, twofold serial diluted peptides in HBS-EP buffer, 0.01 M HEPES pH 7.4, 0.15 M NaCl, 3 mM EDTA, 0.005% Surfactant P20 (Biacore), were injected at 25° C. at a flow rate of 20 μL/min. Two-fold serial diluted DMSO samples and buffer samples were also injected for background subtraction. Kinetic parameters were calculated using BIAevaluation 3.1 software.

VegF = target: T2, VegF (Homo sapiens, UniProt P15692); test: Electrochemiluminescence (BioVeris) competition with Anti-VegF antibody for binding to VegF; conditions: ECL labeled Anti-VegF antibody, biotinylated VegF; for competition with Anti-VegF antibody for binding to VegF: 2 h room temperature
T2 construct: purchased PeproTech
T2 sequence (P15692 27-191 isoform P15692-4): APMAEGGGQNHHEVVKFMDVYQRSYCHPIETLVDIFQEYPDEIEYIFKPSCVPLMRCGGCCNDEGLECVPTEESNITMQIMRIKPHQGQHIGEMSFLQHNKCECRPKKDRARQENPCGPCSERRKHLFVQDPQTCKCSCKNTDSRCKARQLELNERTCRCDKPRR
Procedure: FIG. 19 provides a graph showing results from a competition analysis of 2BBlck81 versus anti-VegF antibody binding to VegF.
Briefly, after cleavage, the pH of the cleaved sample was adjusted to 5.5, the sample was then loaded onto the column (equilibrated with 25 mM MES pH 5.5). The free 2BBIck81 was washed through the column using 25 mM sodium acetate pH 5.0 while the BCE103 catalytic core remained bound to the resin. The 2BBIck81 fraction was concentrated by ultrafiltration and analyzed using an electrochemiluminescence (ECL) based binding assay (BioVeris). The Anti-VegF antibody (Santa Cruz) and VegF (PeproTech) were labeled with the electrochemiluminescent dye and biotin, respectively, as described by the manufacturer (BioVeris). All materials were in Dulbecco's PBS (Mediatech) supplemented with 0.1% TWEEN®-80. An initial dilution series of Anti-VegF antibody (125, 250 and 500 ng/ml) and VegF (100, 150, 200 and 250 ng/ml) were tested in the binding assay to determine the concentrations of each that would give a robust ECL signal.
For testing 2BBIck81 binding, 50 μL of 500 ng/ml ECL labeled Anti-VegF antibody, 50 μL of 250 ng/ml biotinylated VegF and 100 μL 2BBIck81 (series of 12.5, 15, 31.25, 62.5, 125, 250 or 500 ng/ml) were incubated at room temperature for 2 h with shaking. Then, 50 μL of 0.2 mg/ml streptavidin coated beads were added and the reaction was incubated at room temperature for 30 minutes. The ECL signal was measured using a BioVeris M8/384 Analyzer as described by the manufacturer (BioVeris).

[1] = tested on: skin of individuals of skin type III and IV; test: Reduction of skin pigmentation induced by UVA exposure (MPPD), clinical tanning grade; type: in vivo, human; conditions: for Day 13 Avg. Tanning Grade / Day 14 Avg. Tanning Grade / Day 15 Avg. Tanning Grade: 1.0 MPPD UVA daily on days 12-14, 0-10 scale; for Change on Day 13 (tanning grade minus day 12 grade) / Change on Day 14 (tanning grade minus day 12 grade) / Change on Day 15 (tanning grade minus day 12 grade): UVA-induced pigmentation; for Day 12 Avg. Tanning Grade: after 11 days of patches, before UVA exposure, 0-10 scale
Procedure: In this Example, experiments conducted to test the ability of BBI-AV to reduce skin pigmentation induced by UVA exposure are described. This study was conducted with 13 individuals of skin type III and IV based on The Fitzpatrick skin classification. On day one, each subject's minimal persistent pigment darkening dose (MPPD) was determined on the lower back of each individual, in an area that is equal in color to the area that received test material application. […] Subjects returned to the clinic 34 hours after the MPPD exposures were complete. The test sites were scored for pigment darkening using the following scale: • - no visible pigment darkening • ? questionable response; unclear • + slight darkening over essentially the whole irradiation field • ++ definite darkening over the whole irradiation field The site treated with the lowest dose of UVA producing a score of ‘+’ represented that subject's MPPD. On day two, sites of uniform color were marked on the lower back. The clinical grader assessed the degree of tan at each site using a 0-10 scale (0=very slight tan and 10=very deep tanning.) Then the Test material (0.1% and 0.9% of BBI-AV) and the vehicle control applied under occlusion. A volume of 150 μl was dosed onto each patch. The occlusive patches used hte these experiments were the same as described in Example 2. As described in Example 2, the patches remained in place until the next day, when a clinician removed them. This patching procedure was repeated for 11 days. On the days 12-14, the clinician removed the patches that were applied the previous day and the site was gently wiped to remove residual test material. The clinical grader assessed the degree of tan at each site using a 0-10 scale (0=no tan and 10=very deep tanning.) After grading was complete, each site was exposed to 1.0 MPPD of UVA as described for Day 1. New patches were applied after exposures were completed. On day 15, patches were removed and the degree of tan at each site was assessed using a 0-10 scale (0=no tan and 10=very deep tanning). […] In this table, the tanning grade results are shown as the results obtained for day 12 subtracted from grades of days 13, 14 and 15.

[2] = tested on: skin of subjects with Fitzpatrick skin types III or IV; test: Skin lightening study, occlusive patches on lower back, clinical tanning grade; type: in vivo, human
Procedure: In this Example, experiments conducted to assess the skin lightening capabilities of BBI-AV are described. Thirteen subjects, ages 18-65, with Fitzpatrick skin types III or IV participated in this 22-day study. The Fitzpatrick skin classification is based on the skin's unprotected response to the first 30 to 45 minutes of sun exposure following a winter season without sun exposure. The categories of skin types are:
Five test sites of uniform color were marked on the lower back of each subject. The clinical grader assessed the degree of tan at each site using a 0-10 scale (0=very slight tan and 10=very deep tanning.). Each subject was pre-treated with one concentration of Molecule A, two concentrations of Molecule B, vehicle control buffer, and an untreated site for 11 consecutive days. Approximately 150 uL of test materials (0.1% and 0.9% of BBI-AV) and vehicle control were dosed onto the lower back using occlusive patches. Occlusive patches consisted of a Webril® (non-woven cotton) pad held to the skin with a porous, hypoallergenic tape (e.g., SCANPORE® or MICROPORE®). A strip of BLENDERM® tape equal in width of the cotton pad covered the outside of the tape to provide the occlusive patch. Patches remained in place until a clinician removed them the next day. This patching procedure was repeated for 11 days.
On day 12, the clinician removed the patches that were applied the previous day and the site was gently wiped to remove residual test material. The clinical grader assessed the degree of tan at each site using a […].

## CC[C@H](C)[C@@H]1NC(=O)[C@H](CC(=O)O)NC(=O)[C@@H](NC(=O)[C@H](CC(N)=O)NC(=O)[C@@H]2CCCN2C(=O)[C@H](CCC(=O)O)NC(=O)[C@@H](N)C(C)C)CSSC[C@@H](C(=O)N[C@@H](Cc2ccccc2)C(=O)N[C@@H](CCC(=O)O)C(=O)N[C@@H](CCCNC(=N)N)C(=O)N[C@@H](CC(C)C)C(N)=O)NC(=O)[C@H](CCC(=O)O)NC(=O)[C@H](Cc2c[nH]c3ccccc23)NC(=O)[C@H](CCC(=O)O)NC(=O)[C@H](Cc2c[nH]c3ccccc23)NC(=O)[C@H](CCSC)NC(=O)[C@H](C(C)C)NC(=O)[C@H](Cc2c[nH]cn2)NC1=O [v114, reference compound] (H-VEPNCDIHVMWEWECFERL-NH2; disulfide 5-15; N-terminus and C-terminus assumed)
Human VEGF165
  Kd: 223 nM
  kd1: 0.167 s⁻¹

B1: 1BBIck81: BBI with the grafted CK37281 peptide in the trypsin loop (protein)
chain: DDESSKPCCDQCACYNLYGWTCRCSDMRLNSCHSACKSCICALSYPAQCFCVDITDFCYEPCKPSEDDKEN
VegF
  competition with Anti-VegF antibody for binding to VegF: also competed with the Anti-VegF antibody

B2: BBI-AV: BBI sequences having anti-VEGF (AV) sequences incorporated; primary active of the personal care compositions (protein)
chain: DDESSKPCCDQCACYNLYGWTCRCSDMRLNSCHSACKSCICALSYPAQCFCVDLTDFCEPCKPSEDDKEN
[1]; 0.1% BBI-AV
  Day 13 Avg. Tanning Grade: 5.08
  Day 14 Avg. Tanning Grade: 5.13
  Day 15 Avg. Tanning Grade: 5.5
  Change on Day 13 (tanning grade minus day 12 grade): 0.32
  Change on Day 14 (tanning grade minus day 12 grade): 0.37
  Change on Day 15 (tanning grade minus day 12 grade): 0.74
  Day 12 Avg. Tanning Grade: 4.76
[1]; 0.1% and 0.9% of BBI-AV under occlusion, 1.0 MPPD of UVA on days 12-14
  UVA induced pigmentation: UVA induced pigmentation is decreased
[1]; 0.9% BBI-AV
  Day 13 Avg. Tanning Grade: 4.92
  Day 14 Avg. Tanning Grade: 5.04
  Day 15 Avg. Tanning Grade: 5.5
  Change on Day 13 (tanning grade minus day 12 grade): 0.23
  Change on Day 14 (tanning grade minus day 12 grade): 0.35
  Change on Day 15 (tanning grade minus day 12 grade): 0.81
  Day 12 Avg. Tanning Grade: 4.69
[2]; 0.1% and 0.9% of BBI-AV, 150 uL under occlusive patches for 11 days, graded day 12
  change in tanning grade versus vehicle control: greater change in the tanning grade
[2]; 0.9% BBI-AV, Day 11 versus Day 1
  Change in Average Tanning Grade: −0.27
[2]; 0.9% BBI-AV, occlusive patch on lower back, baseline before treatment, clinical grader scale
  Average Day 1 Tanning Grade: 4.96
[2]; 0.9% BBI-AV, occlusive patches for 11 consecutive days, clinical grader scale
  Average Day 11 Tanning Grade: 4.69

B3: 2BBIck81: BBI with the grafted CK37281 peptide in the chymotrypsin loop (protein)
chain: DDESSKPCCDQCACTKSNPPQCRCSDMRLNSCHSACKSCACYNLYGWTCFCVDITDFCYEPCKPSEDDKEN
VegF
  competition for VegF binding compared with synthesized CK37281 peptide: competed for VegF binding better than the synthesized CK37281 peptide itself
  competition with Anti-VegF antibody for binding to VegF: competed with the Anti-VegF antibody for binding to VegF at micromolar concentrations
